Literature values as cited in paper PMC11054419.

Tests used:
TGF-β2 (Homo sapiens) = TGF-β2 (Homo sapiens) (UniProt P61812)
TGF-β3 (Homo sapiens) = TGF-β3 (Homo sapiens) (UniProt P10600)
TGF-β1 (Homo sapiens) = TGF-β1 (Homo sapiens) (UniProt P01137)

Measured: Kd

Chain of TβRIII (betaglycan) (Q03167 21-787): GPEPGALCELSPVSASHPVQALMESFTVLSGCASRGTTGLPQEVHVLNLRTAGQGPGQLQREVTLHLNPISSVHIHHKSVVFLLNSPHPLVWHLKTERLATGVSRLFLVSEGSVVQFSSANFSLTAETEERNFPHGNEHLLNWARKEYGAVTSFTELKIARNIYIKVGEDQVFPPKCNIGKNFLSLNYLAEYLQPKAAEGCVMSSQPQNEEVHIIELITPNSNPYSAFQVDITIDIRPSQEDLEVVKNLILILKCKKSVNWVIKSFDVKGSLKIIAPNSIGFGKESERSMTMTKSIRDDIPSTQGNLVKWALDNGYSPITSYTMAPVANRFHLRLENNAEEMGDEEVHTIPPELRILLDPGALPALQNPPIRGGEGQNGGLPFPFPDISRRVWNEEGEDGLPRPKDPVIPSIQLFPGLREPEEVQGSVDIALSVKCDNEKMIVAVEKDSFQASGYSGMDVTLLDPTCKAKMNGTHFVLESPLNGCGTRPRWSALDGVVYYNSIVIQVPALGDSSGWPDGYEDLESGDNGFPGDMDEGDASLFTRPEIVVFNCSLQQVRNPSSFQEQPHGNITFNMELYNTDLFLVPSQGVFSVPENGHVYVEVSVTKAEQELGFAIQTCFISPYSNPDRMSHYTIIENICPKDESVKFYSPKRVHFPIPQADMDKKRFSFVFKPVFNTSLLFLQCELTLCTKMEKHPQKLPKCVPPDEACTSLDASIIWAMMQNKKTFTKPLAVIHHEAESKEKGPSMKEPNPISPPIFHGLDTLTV
Chain of TGF-β3 (Homo sapiens) (P10600 301-412): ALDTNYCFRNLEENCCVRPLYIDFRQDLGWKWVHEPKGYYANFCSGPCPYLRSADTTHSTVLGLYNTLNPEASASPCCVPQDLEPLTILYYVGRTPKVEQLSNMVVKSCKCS
Chain of TGF-β1 (Homo sapiens) (P01137 279-390): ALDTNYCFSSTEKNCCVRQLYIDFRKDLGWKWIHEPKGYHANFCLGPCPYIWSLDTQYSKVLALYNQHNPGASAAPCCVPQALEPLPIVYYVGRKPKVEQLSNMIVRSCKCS
Chain of TGF-β2 (Homo sapiens) (P61812 303-414): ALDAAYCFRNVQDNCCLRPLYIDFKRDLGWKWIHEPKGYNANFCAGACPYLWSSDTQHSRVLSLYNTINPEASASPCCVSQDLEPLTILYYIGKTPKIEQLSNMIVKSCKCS

TβRIII (betaglycan) (from UniProt Q03167)
0.1 nM: TGF-β2 (Homo sapiens) | TGF-β3 (Homo sapiens) | TGF-β1 (Homo sapiens)
